Measurements: the supplement of paper PMC12764529
± gives the half width of the 95% confidence interval.

Assays:
[1] = folding stability dG unfold from chymotrypsin proteolysis; higher = more stable
Procedure, shortened: (§1)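 How resistant each design was to proteolysis was captured as K50, inferred by Bayesian fitting of sequencing counts. Unfolding free energy was then derived relative to a sequence-predicted unfolded-state K50 and a shared folded-state K50, per protease or combined. Digestion used trypsin and chymotrypsin at 11 threefold-diluted concentrations plus a no-protease condition, on mini-proteins under 80 residues without cysteine in a PA-tagged cDNA display construct. Designs were kept only when AlphaFold2 dimer inter-PAE was above 15.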

[2] = folding stability dG unfold from trypsin proteolysis; higher = more stable
Procedure, shortened: as §1

[3] = folding stability dG unfold (combined trypsin and chymotrypsin); higher = more stable
Procedure, shortened: as §1

Sequence | folding stability dG unfold [1] | folding stability dG unfold [2] | folding stability dG unfold [3]
SAGGMFKVYEVTGKDAKVTIVEAPLPDGGKLVVVEVWEGGKPVKPFLVPVAELEEIAKAIGIKPEELKSAGG [r13_108_TrMRF] | 7.94 ± 0.343 kJ/mol | 4.38 ± 0.113 kJ/mol | 6.59 ± 0.586 kJ/mol
SAGGMGFEKVGTFKLEDDVIVEIYKGPEKKLVAKVYFPKTGKVIEDPGHPDESIEELIERIKAIAEEESAGG [r13_624_TrMRF] | 18.1 ± 0.293 kJ/mol | 18.8 ± 1.63 kJ/mol | 17.6 ± 1.17 kJ/mol
SAGGMGISTEPEISFERKTLPDGTYVLEIHTTTTTTDSSGVVTTTTSTKTVKFSPDNPEKIKELIEALSAGG [r13_412_JUSTAS] | 10.5 ± 0.243 kJ/mol | 11.2 ± 0.41 kJ/mol | 10.6 ± 0.586 kJ/mol
SAGGMGRARLYELEIEVDLHPDETIEGALRRLLGLREDEEILEVEAEVDPVNGKVRIRAVVLVRDPETSAGG [r13_828_TrMRF] | 17.66 ± 0.134 kJ/mol | 10.3 ± 0.364 kJ/mol | 16.1 ± 0.339 kJ/mol
SAGGMIKIEVEKKDDKLIIRIEVDGKKYEIEIPKDMTLEEALKKALEELKEKFPGKKIKIKKVEIFKPSAGG [r13_884_TrROS_Hall] | 9.23 ± 0.368 kJ/mol | 13.5 ± 0.879 kJ/mol | 9.86 ± 1.17 kJ/mol
SAGGMIKVEVEPLEDGVLRVRVYVPHPDGPPIEIEVVFPPEVGSLEEALEKAVEVVEEFLKKHNIPLSAGGS [r8_464_TrMRF] | 9.31 ± 0.272 kJ/mol | 9.41 ± 0.343 kJ/mol | 9.89 ± 0.418 kJ/mol
SAGGMILEIEFPPELIEELLEKLKKEFPDVEVKPLKIEYDPETGLVKVPILVKTKNPEEVEKIKKLAASAGG [r13_539_TrMRF] | 11.6 ± 0.381 kJ/mol | 12.2 ± 0.628 kJ/mol | 11.8 ± 0.46 kJ/mol
SAGGMILKITIPKEDEEKAKELADELAKKLEEETGKPIKVKVKVEKNENGELTIVIEVDGKKIEIKLSAGGS [r16_356_TrROS_Hall] | 1.86 ± 0.326 kJ/mol | 5.52 ± 0.381 kJ/mol | 4.18 ± 1.13 kJ/mol
SAGGMIRITTEDGEELSEEELAELEEAIRKGDLDEAVKKIEELLRERFGKEIKIKVEVFFPPPPPPESAGGS [r8_48_TrROS_Hall] | 13.6 ± 0.385 kJ/mol | 15.9 ± 1.09 kJ/mol | 15 ± 0.628 kJ/mol
SAGGMIRVEDTSTSVSIDIEITPLPNGQYKATITTTTTSAKLLPNGTPVTTTTPTTSTVTITPDVPLLSAGG [r13_561_JUSTAS] | 2.85 ± 0.628 kJ/mol | 6.13 ± 0.222 kJ/mol | 4.69 ± 0.586 kJ/mol
SAGGMITLEIELEDGTKIKIEITRLVSYDEEKGYAIFEAKITVEKDGKKFEKTITIIVKKGTKPGEIISAGG [r13_823_TrROS_Hall] | 16.8 ± 1.05 kJ/mol | 18.6 ± 1.8 kJ/mol | 17.5 ± 1.59 kJ/mol
SAGGMITLPIPLEEAEKLLKELTPDGGDVTTTPLGSLDGEVLYEVTITPPETGNTVTVKVLVPKGRGSAGGS [r16_486_JUSTAS] | 0.746 ± 0.46 kJ/mol | -2.62 ± 1.34 kJ/mol | 0.35 ± 0.669 kJ/mol
SAGGMITLTTKTELIGSYRVTYSVTVDPVDDSVVTSTHVTVTPLPPPPPPLPPVPPENPVLPSPRLESAGGS [r8_234_JUSTAS] | 2.34 ± 1.76 kJ/mol | 1.49 ± 0.628 kJ/mol | 2.54 ± 0.837 kJ/mol
SAGGMITTSTLSDGTTVVTIRVPGSPEEADAVAEEVREALLAAGYRTVEVSREPVEDGWVVTITTVSSAGGS [r8_113_JUSTAS] | 16.27 ± 0.121 kJ/mol | 13.7 ± 0.264 kJ/mol | 15.53 ± 0.13 kJ/mol
SAGGMIVLEFPDGKIVFVEPVSEFTTPDGKKVRLVKVIVTDPLTGKSTIIEREVLPGGGVKEKVTPESAGGS [r16_651_JUSTAS] | 5.53 ± 0.18 kJ/mol | 7.92 ± 0.176 kJ/mol | 6.23 ± 0.544 kJ/mol
SAGGMKEIAKALGIKPEDVKIEEEEIEVNGKKVKKIKITVKDKKTKKEYKIELTIVYDKNGKIVKIELSAGG [r13_358_TrROS_Hall] | 19.7 ± 1.17 kJ/mol | 15.1 ± 0.628 kJ/mol | 19.4 ± 2.38 kJ/mol
SAGGMKIEVEVSDSDIESAAERIAKEVYEKIKAEGKNEDVEVTLTLPNGTRYRIVVDGKGNVKEIIESSAGG [r13_965_JUSTAS] | 15.9 ± 0.669 kJ/mol | 12.9 ± 0.711 kJ/mol | 15.6 ± 1.05 kJ/mol
SAGGMKIIEIEYDEETGKYKFKIKIYDKKTGKLYEIEVEVDKKTGKLSIEEIAKKIAEKLGLPKDIKISAGG [r13_362_TrROS_Hall] | 16.9 ± 0.259 kJ/mol | 11.7 ± 0.711 kJ/mol | 15.4 ± 1.26 kJ/mol
SAGGMKIKIEIEPEGDVVKVKIEIELPEGKVEVVEEEEAEVFEDGKIKVRFRVRRKDGPEFEFELDISAGGS [r8_449_TrMRF] | 18.4 ± 0.837 kJ/mol | 14.6 ± 0.711 kJ/mol | 17.5 ± 0.753 kJ/mol
SAGGMKIKIEVIDPDGKKRVIEIDASTPEEIKAALDALPPGAVVRIVVPSPELREALKEAGVDEVVELSAGG [r13_476_TrROS_Hall] | 11.6 ± 0.289 kJ/mol | 18.3 ± 0.962 kJ/mol | 16.2 ± 0.837 kJ/mol
SAGGMKITITLTVKNEELLEELKKLAEELGLKVKIEVKYDEETNELTVTVEIELPPPPEEPSEEELKSAGGS [r16_262_TrROS_Hall] | 14.2 ± 0.586 kJ/mol | 10.4 ± 0.502 kJ/mol | 13.5 ± 0.628 kJ/mol

Sequence | folding stability dG unfold [1] | folding stability dG unfold [2] | folding stability dG unfold [3]
SAGGMKITTKDGSTITVETEPGKVTITIKPPGDGSTTTLPFPAPSEEEGIEAAIKKIEEEGNVEEIELSAGG [r13_579_JUSTAS] | 2.47 ± 0.418 kJ/mol | 0.268 ± 0.418 kJ/mol | 2.05 ± 1.26 kJ/mol
SAGGMKKVKALVVANPFDPNKYKVFVKAEEEEKVFEFDPNNPEKIIEELEKLLPEDYKLDEIVFESGASAGG [r13_519_TrMRF] | 8.88 ± 0.243 kJ/mol | 3.14 ± 0.134 kJ/mol | 7.29 ± 0.418 kJ/mol
SAGGMKKVRLTLVFESEEEALEALRKALEEAGVEVKVVRVERLPDGRVVVTVEIEVSDEVLEALKAASAGGS [r8_357_TrROS_Hall] | 16.8 ± 0.222 kJ/mol | 15.8 ± 0.285 kJ/mol | 16.4 ± 0.234 kJ/mol
SAGGMKLEILEKSENRIIIRTDEGKIYIAPEIVKKLKEKGGNIKPTLDEIIEWLEKNNIPAEDAVFGDSAGG [r13_610_TrMRF] | 4.65 ± 0.268 kJ/mol | 2.88 ± 0.117 kJ/mol | 3.83 ± 0.46 kJ/mol
SAGGMKLEIYLRFKTEEEAKKAVEELIRKLLEELGLEVEVEVVYDEETKEVYVKVTVTFPELPEEELSAGGS [r8_17_TrROS_Hall] | 19.6 ± 1.21 kJ/mol | 15.4 ± 0.795 kJ/mol | 18.4 ± 1.63 kJ/mol
SAGGMKLPENAKVVKKIEIKDEKTGKTFKATIVKNKDGSLYIFIEKDGKIYKFKIENGKIKMEEIPPSAGGS [r16_711_TrROS_Hall] | 18.3 ± 1.05 kJ/mol | 15.7 ± 3.14 kJ/mol | 17 ± 2.3 kJ/mol
SAGGMKPGEIVEKITIEIEINGKKYKIEMTFYKDNGIIEIKIYNKNGKLIKTFKFYIDPKTKKIILLSAGGS [r16_798_TrROS_Hall] | 15.9 ± 0.41 kJ/mol | 15.3 ± 0.586 kJ/mol | 15.4 ± 1.42 kJ/mol
SAGGMKTLTITLTVRNPATQETLTLTITVPEGMSEEELQALLKQLQELVEALLQLPPPPPPPPPELESAGGS [r16_191_TrROS_Hall] | 17.8 ± 0.276 kJ/mol | 13.2 ± 0.502 kJ/mol | 16.8 ± 0.46 kJ/mol
SAGGMKTYTVTVEREVPDPSSDKWVYSTETLTIPYNVDPKTGTTPEEVAEELKAALPPDVLRVEFTDESAGG [r13_335_JUSTAS] | 1.96 ± 0.879 kJ/mol | -0.694 ± 0.586 kJ/mol | 1.33 ± 0.544 kJ/mol
SAGGMKVIELTVDEIKELADKLKENKNLKATIYVNGKKVELEFDTVEDALKALKVKPGDTVLIEIEPSAGGS [r16_377_TrROS_Hall] | 16.2 ± 0.293 kJ/mol | 10.9 ± 0.213 kJ/mol | 14.6 ± 0.285 kJ/mol
SAGGMKVKVEVEITVNGKLVKKLTVEMSVEELKKLIEELLPPGAKVEVKIVEVKVEEVEVYELPEEEKSAGG [r13_491_TrROS_Hall] | 9.26 ± 0.753 kJ/mol | 7.56 ± 0.544 kJ/mol | 9.11 ± 1.34 kJ/mol
SAGGMLDLSDVEVLNTVPIGGGNYLVLLKVPKLGKVVVVPASDLKKLKENVPNVKISFTPVAPSESGSAGGS [r16_61_TrMRF] | 5.43 ± 0.301 kJ/mol | 2.51 ± 0.105 kJ/mol | 4.54 ± 0.247 kJ/mol
SAGGMLEEVAEELAKELNATAREFTTVGDVPRILLTFKVPGSSTYLEVTLTLPPDGSVERTTKPIAASAGGS [r16_433_JUSTAS] | 7.12 ± 0.711 kJ/mol | 4.08 ± 0.197 kJ/mol | 5.46 ± 0.586 kJ/mol
SAGGMLKIEVTVPAEYPEQAEEIAAEIRDLLEAGPYVKVLKVEIEPTEDTVRVTVVVEIEFDSPEELISAGG [r13_39_TrMRF] | 8.79 ± 0.251 kJ/mol | 5.69 ± 0.711 kJ/mol | 7.45 ± 0.879 kJ/mol
SAGGMLLKLPLSSVEIPPDASEEEIEEAKRKLAKPKVVKVTEEVLIEENGIVKKVKVTKYVSLSVEESAGGS [r16_387_JUSTAS] | 2.34 ± 1.21 kJ/mol | 3.53 ± 0.343 kJ/mol | 3.64 ± 0.502 kJ/mol
SAGGMLPGLRPLLLAVLVPAEEPLEPEQVRELAEELRRELEEKGYGFAFRAIELEDFQLIIVDVVDPFSAGG [r13_442_TrMRF] | 14.35 ± 0.126 kJ/mol | 10.6 ± 0.213 kJ/mol | 13 ± 0.213 kJ/mol
SAGGMLRVTATVGYAPDDPAVELAKKIAEALTPPGMKVRMKAKVTPLADGTYRIDIEVEIRPPGEPGSAGGS [r16_128_TrMRF] | 15.2 ± 0.544 kJ/mol | 11.1 ± 0.669 kJ/mol | 13.7 ± 0.586 kJ/mol
SAGGMLTGTLVDPVEGIRYTSFYDPSKPSSSITPKPIPPVPPVSLEELAERLRAATGLSREEVLALLESAGG [r13_824_JUSTAS] | 1.66 ± 0.544 kJ/mol | 4.25 ± 0.092 kJ/mol | 3.18 ± 0.301 kJ/mol
SAGGMLTLIDPETGEPFLTTPIATFTVPVTLTGPDGKPLETRTLRITLFRAYRPDGSPALILLVSPESAGGS [r8_214_TrMRF] | 19.8 ± 0.255 kJ/mol | 15.5 ± 0.347 kJ/mol | 18 ± 0.218 kJ/mol
SAGGMLTLPATVEGDELTLTLPTGATKTVSPNTTVKLPDGTVVSLTPVSPSSVSATVTPLPADATRPSAGGS [r16_277_JUSTAS] | 6.701 ± 0.0418 kJ/mol | 0.872 ± 0.121 kJ/mol | 5.06 ± 0.293 kJ/mol
